Assay [1] has as its target ΔCRD1-TNFR2 protein (with CRD1 deletion), on CHO-S cells (human) (UniProt P20333). Briefly: FACS on CHO-S cells with ΔCRD1-TNFR2, secondary antibody alone (background control).
Assay [2] addresses ΔCRD2-TNFR2 protein (with CRD2 deletion), on CHO-S cells (human) (UniProt P20333). Briefly: FACS on CHO-S cells with ΔCRD2-TNFR2, secondary antibody alone (background control).
For assay [3], the target named is ΔCRD3-TNFR2 protein (with CRD3 deletion), on CHO-S cells (human) (UniProt P20333). Description: FACS on CHO-S cells with ΔCRD3-TNFR2, secondary antibody alone (background control).
Chain of ΔCRD3-TNFR2 protein (with CRD3 deletion), on CHO-S cells (human) (P20333 other isoform, or with tags, fused parts or gaps mutant): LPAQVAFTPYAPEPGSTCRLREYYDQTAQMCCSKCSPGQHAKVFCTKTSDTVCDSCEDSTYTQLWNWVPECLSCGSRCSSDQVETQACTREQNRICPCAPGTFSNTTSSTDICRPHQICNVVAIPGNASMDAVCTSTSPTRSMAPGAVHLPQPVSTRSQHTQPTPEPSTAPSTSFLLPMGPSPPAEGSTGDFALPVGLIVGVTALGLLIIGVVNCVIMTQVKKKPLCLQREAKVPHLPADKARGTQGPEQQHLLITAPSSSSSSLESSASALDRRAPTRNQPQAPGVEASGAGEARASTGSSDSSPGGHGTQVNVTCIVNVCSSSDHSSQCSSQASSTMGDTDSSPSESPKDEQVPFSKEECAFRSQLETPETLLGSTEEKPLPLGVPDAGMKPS
For assay [4], the target named is ΔCRD4-TNFR2 protein (with CRD4 deletion), on CHO-S cells (human) (UniProt P20333). Description: FACS on CHO-S cells with ΔCRD4-TNFR2, secondary antibody alone (background control).
Chain of ΔCRD4-TNFR2 protein (with CRD4 deletion), on CHO-S cells (human) (P20333 other isoform, or with tags, fused parts or gaps mutant): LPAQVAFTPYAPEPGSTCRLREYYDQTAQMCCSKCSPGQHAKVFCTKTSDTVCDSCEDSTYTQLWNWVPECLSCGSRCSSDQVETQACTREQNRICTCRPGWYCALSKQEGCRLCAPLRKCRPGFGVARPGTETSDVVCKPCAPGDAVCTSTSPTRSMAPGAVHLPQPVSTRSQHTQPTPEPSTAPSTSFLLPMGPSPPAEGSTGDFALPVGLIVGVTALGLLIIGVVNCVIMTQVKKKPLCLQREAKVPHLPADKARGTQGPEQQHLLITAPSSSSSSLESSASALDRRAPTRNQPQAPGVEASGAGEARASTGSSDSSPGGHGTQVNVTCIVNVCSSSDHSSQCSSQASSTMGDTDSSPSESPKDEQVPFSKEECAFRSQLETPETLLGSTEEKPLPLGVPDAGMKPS

Chain of ΔCRD2-TNFR2 protein (with CRD2 deletion), on CHO-S cells (human) (P20333 other isoform, or with tags, fused parts or gaps mutant): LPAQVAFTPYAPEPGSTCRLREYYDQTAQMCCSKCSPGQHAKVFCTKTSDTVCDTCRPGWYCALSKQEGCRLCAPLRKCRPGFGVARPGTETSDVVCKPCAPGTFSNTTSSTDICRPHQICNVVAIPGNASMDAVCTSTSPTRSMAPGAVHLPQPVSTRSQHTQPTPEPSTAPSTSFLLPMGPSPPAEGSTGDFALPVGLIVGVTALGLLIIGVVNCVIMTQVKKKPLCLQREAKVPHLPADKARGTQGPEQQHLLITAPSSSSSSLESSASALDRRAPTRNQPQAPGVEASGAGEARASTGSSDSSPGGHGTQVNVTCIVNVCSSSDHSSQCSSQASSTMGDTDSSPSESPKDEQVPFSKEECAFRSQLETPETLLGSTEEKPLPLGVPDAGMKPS
Chain of ΔCRD1-TNFR2 protein (with CRD1 deletion), on CHO-S cells (human) (P20333 other isoform, or with tags, fused parts or gaps mutant): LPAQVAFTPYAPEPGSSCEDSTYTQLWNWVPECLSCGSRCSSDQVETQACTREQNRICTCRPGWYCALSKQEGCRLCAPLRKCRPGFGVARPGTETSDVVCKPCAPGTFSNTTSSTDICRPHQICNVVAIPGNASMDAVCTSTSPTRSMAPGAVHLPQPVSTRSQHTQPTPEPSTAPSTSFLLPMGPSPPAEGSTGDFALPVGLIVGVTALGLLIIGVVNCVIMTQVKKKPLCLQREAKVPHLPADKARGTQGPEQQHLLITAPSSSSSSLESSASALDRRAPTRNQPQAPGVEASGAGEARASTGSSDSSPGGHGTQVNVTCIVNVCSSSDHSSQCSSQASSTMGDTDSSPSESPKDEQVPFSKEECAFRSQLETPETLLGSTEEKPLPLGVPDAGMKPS

With “Secondary antibody (Alexa Fluor 647 AffiniPure F(ab')2 Fragment Goat Anti-Human IgG, Fcγ fragment specific, Jackson ImmunoResearch)”, the positive rate of binding (% of cells) turned out to be 10.2% in assay [1], 7.33% in assay [2], 0.62% in assay [3] and 1.02% in assay [4].
